To fix the notation:
B1: Mannose receptor C-terminal peptide AA31L (peptide)
peptide: Biotin-GTSDMKDLVGNIEQNEHSVI
notes: Only the last four residues are seen in the excerpts

Ends that are not written are not given here. * marks the point of attachment. Biotin = O=C1N[C@H]2[C@H](CS[C@H]2CCCCC(=O)*)N1

T14 sequence (Q92743 other isoform, or with tags, fused parts or gaps limits assumed): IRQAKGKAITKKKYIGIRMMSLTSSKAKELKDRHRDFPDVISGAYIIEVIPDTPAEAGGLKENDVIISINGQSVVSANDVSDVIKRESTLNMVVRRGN
T5 sequence (P29475 11-100 limits assumed): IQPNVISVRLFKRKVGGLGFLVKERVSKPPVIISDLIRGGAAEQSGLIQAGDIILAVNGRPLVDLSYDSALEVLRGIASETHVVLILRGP

In the first experiment the target is T1, MINT3 PDZ-GST fusion protein.
T1 construct: Order of GST and PDZ part and limits not seen in the excerpts
T1 chain: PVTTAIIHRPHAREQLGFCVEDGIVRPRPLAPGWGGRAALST
Put plainly: A/G assays.
As for B1, the binding result is “no binding”.

As for Biotin-CAISGTSSDRGYGSPRYAEV (also called AA3L-V) [Clasp-4 C-terminal peptide AA3L, biotinylated], the binding result was “no binding”.

On to Biotin-ISKATPALPTVSISSSAEV (also called AA1L-R) [Clasp-1 C-terminal peptide AA1L, biotinylated], for which the binding result was “no binding”.

In the next experiment the target is T2, GST-CASK PDZ domain fusion protein (Homo sapiens, UniProt O14936 486-575).
T2 construct: also called Homo sapiens CASK protein
T2 sequence: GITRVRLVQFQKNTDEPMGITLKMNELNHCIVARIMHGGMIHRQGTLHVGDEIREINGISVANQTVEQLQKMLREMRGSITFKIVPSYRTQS
Put plainly: A/G assays.
Take B1: the binding result is “no binding”.

Turning to Biotin-CAISGTSSDRGYGSPRYAEV (also called AA3L-V) [Clasp-4 C-terminal peptide AA3L, biotinylated], the binding result is on record as “no binding”.

With Biotin-ISKATPALPTVSISSSAEV (also called AA1L-R) [Clasp-1 C-terminal peptide AA1L, biotinylated], the binding result was “no binding”.

The target in a further experiment is T3, GST-PTN-4 PDZ domain fusion protein (Homo sapiens (Human), UniProt P29074 517-605).
T3 construct: also called protein-tyrosine phosphatase meg1; not shown: glutathione S-transferase encoded by vector pGEX-3X (Pharmacia)
T3 sequence: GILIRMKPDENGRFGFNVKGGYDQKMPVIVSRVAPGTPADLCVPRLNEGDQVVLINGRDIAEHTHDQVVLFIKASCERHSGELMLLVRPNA
Put plainly: A/G assays.
Take B1: the binding result is recorded as “no binding”.

As for Biotin-CAISGTSSDRGYGSPRYAEV (also called AA3L-V) [Clasp-4 C-terminal peptide AA3L, biotinylated], the binding result is recorded as “no binding”.

Take Biotin-ISKATPALPTVSISSSAEV (also called AA1L-R) [Clasp-1 C-terminal peptide AA1L, biotinylated]: the binding result is recorded as “no binding”.

In the next experiment the target is T4, GST-PDZK1 fusion protein (PDZ domains 2-4) (Homo sapiens, UniProt Q5T2W1 134-457).
T4 construct: not shown: glutathione S-transferase encoded by vector pGEX-3X (Pharmacia)
T4 sequence: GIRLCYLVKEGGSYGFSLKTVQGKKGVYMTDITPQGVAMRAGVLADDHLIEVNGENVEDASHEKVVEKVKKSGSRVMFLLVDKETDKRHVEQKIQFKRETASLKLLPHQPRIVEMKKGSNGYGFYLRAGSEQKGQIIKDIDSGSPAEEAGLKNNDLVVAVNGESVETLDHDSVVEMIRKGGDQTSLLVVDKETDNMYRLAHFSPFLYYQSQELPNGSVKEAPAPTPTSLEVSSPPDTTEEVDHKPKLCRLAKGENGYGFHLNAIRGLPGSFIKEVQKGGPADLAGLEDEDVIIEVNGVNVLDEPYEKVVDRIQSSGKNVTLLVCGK
The experiment can be described thus: A/G assays.
With B1, the binding result is “no binding”.

With Biotin-CAISGTSSDRGYGSPRYAEV (also called AA3L-V) [Clasp-4 C-terminal peptide AA3L, biotinylated], the binding result is “no binding”.

Biotin-ISKATPALPTVSISSSAEV (also called AA1L-R) [Clasp-1 C-terminal peptide AA1L, biotinylated]: the binding result is listed as “no binding”.

A further experiment concerns the target T5, NOS1 PDZ-GST fusion protein (Homo sapiens (Human), UniProt P29475 11-100).
T5 construct: Order of GST and PDZ part and limits not seen in the excerpts
The experiment can be described thus: A/G assays.
For B1, the binding result was “no binding”.

As for Biotin-CAISGTSSDRGYGSPRYAEV (also called AA3L-V) [Clasp-4 C-terminal peptide AA3L, biotinylated], the binding result was “no binding”.

With Biotin-ISKATPALPTVSISSSAEV (also called AA1L-R) [Clasp-1 C-terminal peptide AA1L, biotinylated], the binding result is “no binding”.

In the next experiment the target is T6, K559 PDZ-GST fusion protein (Homo sapiens (Human), UniProt Q9Y6V0 4489-4593).
T6 construct: Order of GST and PDZ part and limits not seen in the excerpts
T6 sequence: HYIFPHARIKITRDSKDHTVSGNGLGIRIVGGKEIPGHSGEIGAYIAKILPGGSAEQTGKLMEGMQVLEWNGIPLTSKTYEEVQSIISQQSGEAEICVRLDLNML
The experiment can be described thus: A/G assays.
As for B1, the binding result is listed as “no binding”.

On to Biotin-CAISGTSSDRGYGSPRYAEV (also called AA3L-V) [Clasp-4 C-terminal peptide AA3L, biotinylated], for which the binding result was “no binding”.

Regarding Biotin-ISKATPALPTVSISSSAEV (also called AA1L-R) [Clasp-1 C-terminal peptide AA1L, biotinylated], the binding result was “no binding”.

Another experiment concerns the target T7, GST-LIM protein PDZ domain fusion protein (Human, UniProt Q96HC4 2-85).
T7 construct: also called Human LIM protein; not shown: glutathione S-transferase encoded by vector pGEX-3X (Pharmacia)
T7 sequence: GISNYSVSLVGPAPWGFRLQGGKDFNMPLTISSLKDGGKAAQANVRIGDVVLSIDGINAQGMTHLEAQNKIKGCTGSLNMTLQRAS
The experiment can be described thus: A/G assays.
Regarding B1, the binding result was “no binding”.

For the molecule Biotin-CAISGTSSDRGYGSPRYAEV (also called AA3L-V) [Clasp-4 C-terminal peptide AA3L, biotinylated], the binding result is reported as “no binding”.

Consider Biotin-ISKATPALPTVSISSSAEV (also called AA1L-R) [Clasp-1 C-terminal peptide AA1L, biotinylated], for which the binding result is on record as “no binding”.

The target of a further experiment is T8, GST-RGS12 PDZ domain fusion protein (human, UniProt O14924 17-85).
T8 construct: also called human regulator of G-protein signalling 12; not shown: glutathione S-transferase encoded by vector pGEX-3X (Pharmacia)
T8 sequence: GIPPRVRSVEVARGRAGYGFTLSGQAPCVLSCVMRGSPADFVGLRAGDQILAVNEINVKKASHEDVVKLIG
Put plainly: A/G assays.
For the molecule B1, the binding result is given as “no binding”.

With Biotin-CAISGTSSDRGYGSPRYAEV (also called AA3L-V) [Clasp-4 C-terminal peptide AA3L, biotinylated], the binding result was “no binding”.

For Biotin-ISKATPALPTVSISSSAEV (also called AA1L-R) [Clasp-1 C-terminal peptide AA1L, biotinylated], the binding result is recorded as “no binding”.

The next experiment has as its target T9, GST-mouse syntenin fusion protein (Mus musculus, UniProt O08992 108-286).
T9 construct: also called Mus musculus Syntenin; not shown: glutathione S-transferase encoded by vector pGEX-3X (Pharmacia)
T9 chain: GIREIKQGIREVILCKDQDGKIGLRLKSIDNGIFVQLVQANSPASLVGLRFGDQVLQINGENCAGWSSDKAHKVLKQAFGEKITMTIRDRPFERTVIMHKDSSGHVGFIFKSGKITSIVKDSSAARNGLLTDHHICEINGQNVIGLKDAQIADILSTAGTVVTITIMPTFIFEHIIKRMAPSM
Put plainly: A/G assays.
With B1, the binding result is on record as “no binding”.

Turning to Biotin-CAISGTSSDRGYGSPRYAEV (also called AA3L-V) [Clasp-4 C-terminal peptide AA3L, biotinylated], the binding result is recorded as “no binding”.

Take Biotin-ISKATPALPTVSISSSAEV (also called AA1L-R) [Clasp-1 C-terminal peptide AA1L, biotinylated]: the binding result was “no binding”.

The next experiment concerns the target T10, KIAA0807 (PDZ domain)-GST fusion protein (human, UniProt Q6P0Q8 1104-1192).
T10 construct: also called K807; KIAA807; not shown: glutathione S-transferase encoded by vector pGEX-3X (Pharmacia)
T10 sequence: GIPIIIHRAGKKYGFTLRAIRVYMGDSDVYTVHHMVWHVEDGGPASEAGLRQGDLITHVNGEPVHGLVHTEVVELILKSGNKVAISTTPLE
The experiment can be described thus: A/G assays.
B1: the binding result is given as “no binding”.

For the molecule Biotin-CAISGTSSDRGYGSPRYAEV (also called AA3L-V) [Clasp-4 C-terminal peptide AA3L, biotinylated], the binding result is given as “no binding”.

Biotin-ISKATPALPTVSISSSAEV (also called AA1L-R) [Clasp-1 C-terminal peptide AA1L, biotinylated]: the binding result was “no binding”.

Another experiment concerns the target T11, GST-cytohesin binding protein PDZ domain fusion protein (Homo sapiens (Human), UniProt O60759 74-165).
T11 construct: also called CBP; not shown: glutathione S-transferase encoded by vector pGEX-3X (Pharmacia)
T11 sequence: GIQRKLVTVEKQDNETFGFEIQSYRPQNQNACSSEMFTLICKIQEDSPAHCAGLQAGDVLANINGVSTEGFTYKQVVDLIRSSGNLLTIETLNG
The experiment can be described thus: A/G assays.
Turning to B1, the binding result is “no binding”.

Consider Biotin-CAISGTSSDRGYGSPRYAEV (also called AA3L-V) [Clasp-4 C-terminal peptide AA3L, biotinylated], for which the binding result is reported as “no binding”.

In the case of Biotin-ISKATPALPTVSISSSAEV (also called AA1L-R) [Clasp-1 C-terminal peptide AA1L, biotinylated], the binding result was “no binding”.

The next experiment addresses T12, GST-TAX-IP40 PDZ domain fusion protein (human, UniProt Q6B4M5 150-252 (rat entry)).
T12 construct: also called TAX40; not shown: glutathione S-transferase encoded by vector pGEX-3X (Pharmacia)
T12 sequence: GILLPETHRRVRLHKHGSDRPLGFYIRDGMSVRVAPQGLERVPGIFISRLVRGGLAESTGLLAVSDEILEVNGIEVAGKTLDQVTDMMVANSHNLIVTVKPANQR
The experiment can be described thus: A/G assays.
On to B1, for which the binding result is on record as “no binding”.

In the case of Biotin-CAISGTSSDRGYGSPRYAEV (also called AA3L-V) [Clasp-4 C-terminal peptide AA3L, biotinylated], the binding result is “no binding”.

For the molecule Biotin-ISKATPALPTVSISSSAEV (also called AA1L-R) [Clasp-1 C-terminal peptide AA1L, biotinylated], the binding result was “no binding”.

For the next experiment, the target named is T13, X11β PDZ-GST fusion protein (Rattus norvegicus (Rat), UniProt O35431 560-745).
T13 construct: Order of GST and PDZ part and limits not seen in the excerpts
T13 chain: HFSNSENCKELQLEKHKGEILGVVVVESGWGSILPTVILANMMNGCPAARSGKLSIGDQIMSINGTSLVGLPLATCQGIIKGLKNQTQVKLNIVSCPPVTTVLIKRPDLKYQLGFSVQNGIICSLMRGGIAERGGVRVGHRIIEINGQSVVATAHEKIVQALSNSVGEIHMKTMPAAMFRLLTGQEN
Put plainly: A/G assays.
Regarding B1, the binding result is given as “no binding”.

Regarding Biotin-CAISGTSSDRGYGSPRYAEV (also called AA3L-V) [Clasp-4 C-terminal peptide AA3L, biotinylated], the binding result is given as “no binding”.

Regarding Biotin-ISKATPALPTVSISSSAEV (also called AA1L-R) [Clasp-1 C-terminal peptide AA1L, biotinylated], the binding result is reported as “no binding”.

Another experiment concerns the target T14, NSP PDZ-GST fusion protein (Homo sapiens (Human), UniProt Q92743 370-466).
T14 construct: The label NSP is not explained in the excerpts
Put plainly: A/G assays.
Take B1: the binding result was “no binding”.

Take Biotin-CAISGTSSDRGYGSPRYAEV (also called AA3L-V) [Clasp-4 C-terminal peptide AA3L, biotinylated]: the binding result is given as “no binding”.

Consider Biotin-ISKATPALPTVSISSSAEV (also called AA1L-R) [Clasp-1 C-terminal peptide AA1L, biotinylated], for which the binding result was “no binding”.

Another experiment addresses T15, GST-MPP1 PDZ domain fusion protein (Homo sapiens (Human), UniProt Q00013 67-152).
T15 construct: also called p55; 55 Kd erythrocyte membrane protein; not shown: glutathione S-transferase encoded by vector pGEX-3X (Pharmacia)
T15 sequence: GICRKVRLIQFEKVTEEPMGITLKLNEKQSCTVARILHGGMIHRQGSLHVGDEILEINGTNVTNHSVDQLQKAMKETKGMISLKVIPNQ
The experiment can be described thus: A/G assays.
For the molecule B1, the binding result is “no binding”.

As to Biotin-CAISGTSSDRGYGSPRYAEV (also called AA3L-V) [Clasp-4 C-terminal peptide AA3L, biotinylated], the binding result was “no binding”.

Consider Biotin-ISKATPALPTVSISSSAEV (also called AA1L-R) [Clasp-1 C-terminal peptide AA1L, biotinylated], for which the binding result is “no binding”.

Values taken from US20050037969A1 (ARBOR VITA, published 2005).
